Consider one molecule from US20250090677A1 (MULTITUDE THERAPEUTICS, published 2025).

For assay [1], the target named is T1, CDH6 on the cell surface of OVCAR-3 cells (human ovarian cancer cells) (human, UniProt P55285 54-790).
T1 construct: whole, on cells; also called CDH6-positive human ovarian cancer cell line OVCAR-3
T1 sequence (looked up): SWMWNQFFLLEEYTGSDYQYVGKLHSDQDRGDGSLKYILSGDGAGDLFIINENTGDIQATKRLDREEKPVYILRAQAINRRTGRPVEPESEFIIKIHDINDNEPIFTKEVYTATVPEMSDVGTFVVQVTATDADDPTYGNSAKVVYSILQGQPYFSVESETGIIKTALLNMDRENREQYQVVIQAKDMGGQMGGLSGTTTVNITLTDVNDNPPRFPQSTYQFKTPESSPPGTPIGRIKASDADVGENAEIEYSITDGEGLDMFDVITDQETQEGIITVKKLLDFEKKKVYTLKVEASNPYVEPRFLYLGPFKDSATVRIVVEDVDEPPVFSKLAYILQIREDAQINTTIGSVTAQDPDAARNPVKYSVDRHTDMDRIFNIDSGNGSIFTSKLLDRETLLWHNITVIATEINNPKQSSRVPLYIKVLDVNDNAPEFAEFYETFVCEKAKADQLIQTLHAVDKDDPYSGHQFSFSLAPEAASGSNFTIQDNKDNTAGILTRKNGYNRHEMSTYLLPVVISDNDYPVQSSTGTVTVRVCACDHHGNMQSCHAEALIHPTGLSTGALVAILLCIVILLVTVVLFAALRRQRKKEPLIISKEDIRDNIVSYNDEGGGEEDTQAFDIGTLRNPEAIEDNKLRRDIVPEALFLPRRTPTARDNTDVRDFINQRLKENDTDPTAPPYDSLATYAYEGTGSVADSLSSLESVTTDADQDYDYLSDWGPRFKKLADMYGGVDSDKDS
The experiment in a line: flow cytometry (FACS) on OVCAR-3 cells, antibody titration, labelled secondary antibody, MFI. On the procedure:
The binding EC50 of the humanized antibodies on tumor cell were tested as follow. Human ovarian cancer cell line OVCAR-3(purchased from National Collection of Authenticated Cell Cultures) cell culture was maintained in vitro as independent monolayer cultures at 37° C. in an atmosphere of 5% CO₂. The cells were harvested using trypsin-EDTA partial digestion followed by centrifugation at 1000 rpm for 5 minutes. The cell was resuspended in cold PBS and serial dilution of Ch069707 and CL069707-H1L1, CL069707-H1L2, CL069707-H2L1 and CL069707-H2L2 antibodies were added. Ch069707 antibody was a chimeric antibody. The variable regions were the same as those of CL069707, and the constant region was the same as human IgG1 constant regions (SEQ ID NO: 70 and SEQ ID NO: 71). The cell solutions were mixed, incubated at 4° C. and washed with cold PBS prior to addition of secondary antibody conjugates (for detection purposes). After incubation at 4° C., the cells were washed with PBS, and then subjected to flow cytometry (FACS) analysis.
In general terms: Flow cytometry measures light scatter and fluorescence of single cells or particles in a stream.

In a further assay the target is T2, Human CDH6-ECD-His (human, UniProt P55285 54-615).
T2 construct: extracellular domain; Bought protein; also called human CDH6-ECD-His recombinant protein; Human CDH6-EC6D-His; not shown: His tag
T2 sequence (looked up): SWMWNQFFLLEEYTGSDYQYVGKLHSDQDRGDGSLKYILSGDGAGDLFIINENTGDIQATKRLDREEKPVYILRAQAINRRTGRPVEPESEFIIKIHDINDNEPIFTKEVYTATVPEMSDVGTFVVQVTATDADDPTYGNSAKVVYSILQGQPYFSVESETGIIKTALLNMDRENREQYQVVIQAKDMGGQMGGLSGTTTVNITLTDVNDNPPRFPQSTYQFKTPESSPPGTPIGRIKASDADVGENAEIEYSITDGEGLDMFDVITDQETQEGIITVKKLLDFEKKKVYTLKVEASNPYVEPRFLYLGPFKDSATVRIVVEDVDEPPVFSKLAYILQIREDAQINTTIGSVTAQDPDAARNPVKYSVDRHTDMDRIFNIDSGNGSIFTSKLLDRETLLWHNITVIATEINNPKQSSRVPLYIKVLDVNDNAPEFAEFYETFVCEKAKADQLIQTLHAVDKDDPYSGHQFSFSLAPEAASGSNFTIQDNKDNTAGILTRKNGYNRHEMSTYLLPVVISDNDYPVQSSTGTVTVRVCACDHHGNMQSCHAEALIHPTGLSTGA
The experiment in a line: ELISA, antigen coated at 1 ug/mL. As to the method: CDH9 and […] are the most closely related family members to CDH6. Binding of CL069707-H1L1 on human CDH6, CDH9 and CDH10 ECD domains were analyzed by ELISA Binding Assay. Human […], CDH9-ECD-His and CDH10-ECD-His antigens were obtained from Acro Biosystems, Inc. 100 μL of 1 μg/mL of the antigens diluted in PBS were added to 96 well plates and incubated in 4° C. overnight. The plates were washed 3 times with 300 μL of washing buffer. Then 100 μL/well of 1% BSA blocking reagent were added to the plates, and incubated at 37° C. for 1 h then the blocking reagent were discarded. A 3-fold serial dilution of CL069707-H1L1 was added to the plates and then incubated at 37° C. for 1 h. Then the plates were washed 3 times with 300 μL of washing buffer. 100 μL/well of HRP-conjugated anti-Human antibody diluted in 1% BSA were added to the plates and then incubated at 37° C. for 1 h. The plates were washed 3 times with 300 μL of washing buffer. 100 μL/well of TMB substrate were added to the plates and incubated for about 10 min in room temperature. Then the reaction was stopped with 100 μL/well of stopping solution. OD450 was read with a plate reader and the data were processed.
In general terms: ELISA stands for enzyme-linked immunosorbent assay.

B1: CL069707-H1L1 (antibody, human IgG1, kappa, V domains shown)
VH: EVQLVESGGGLVQPGGSLRLSCAASGFTFTTYAMNWVRQAPGKGLEWVARIRIKNNNYATYYADSVTDRFTISRDDSKNSLYLQMNSLKTEDTAVYYCVRPDYGNYGLAYWGQGTLVTVSS
VL: DIQLTQSPSSLSASVGDRVTITCSASSSISSHYLHWYQQKPGKSPKLLIYRSFYLASGVPSRFSGSGSGTDFTLTISSLQPEDFATYYCQQDIVPLTFGQGTKLEIKR
notes: Humanized IgG1/kappa, produced in 293 cells; also called humanized CL069707-H1L1
Consider B1, for which, in assay [1], the “EC50 (read off the curve)” value was about 1 nM. This molecule also returned an EC50 in the assay with Human CDH6-ECD-His of 0.1 nM.

As a reminder, the EC50 (read off the curve) is the concentration needed to bring the measured effect to its halfway point. Low readings indicate a more potent agent, high ones a less potent agent. As usually defined, the EC50 is the concentration at which the effect is half-maximal. High values mean weaker potency, low ones greater potency.
